Source: paper PMC2879644

Target: Biotinylated histone H3 peptide (aa 21-44) tri-methylated on K27 (UniProt P68431)
Assay: pull-down

fold change of the amount bound against Pc2 (1-100): > 4 fold
Substance: GST-SUMO1-fused Pc2(1-100) (from UniProt O00257 1-100)
